Here are results for 1 molecule from patent US20240018247A1 (MUSC FOUNDATION FOR RESEARCH DEVELOPMENT, published 2024).

One assay concerns the target T1, human P-selectin (human, UniProt P16109 42-771, limits assumed).
T1 construct: also called human P-selectin antigen
T1 sequence (looked up): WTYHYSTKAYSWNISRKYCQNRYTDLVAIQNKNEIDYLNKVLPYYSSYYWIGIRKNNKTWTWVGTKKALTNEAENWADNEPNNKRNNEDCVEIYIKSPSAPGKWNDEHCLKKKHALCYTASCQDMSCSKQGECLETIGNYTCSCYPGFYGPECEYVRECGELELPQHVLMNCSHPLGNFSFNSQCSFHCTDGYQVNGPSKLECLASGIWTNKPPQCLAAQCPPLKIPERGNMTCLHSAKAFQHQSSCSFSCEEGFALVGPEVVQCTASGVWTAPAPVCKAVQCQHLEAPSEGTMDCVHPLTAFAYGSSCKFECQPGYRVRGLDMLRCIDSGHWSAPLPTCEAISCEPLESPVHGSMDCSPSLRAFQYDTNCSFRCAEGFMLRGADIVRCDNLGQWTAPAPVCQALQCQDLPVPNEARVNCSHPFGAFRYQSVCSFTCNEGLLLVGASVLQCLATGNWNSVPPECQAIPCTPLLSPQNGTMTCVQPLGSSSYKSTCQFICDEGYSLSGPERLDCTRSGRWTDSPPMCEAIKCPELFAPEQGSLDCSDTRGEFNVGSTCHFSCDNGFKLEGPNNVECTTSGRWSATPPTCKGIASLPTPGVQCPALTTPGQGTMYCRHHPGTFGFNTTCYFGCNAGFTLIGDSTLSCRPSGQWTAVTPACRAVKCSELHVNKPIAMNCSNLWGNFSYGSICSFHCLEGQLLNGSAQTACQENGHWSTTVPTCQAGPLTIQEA
Put plainly: ELISA binding assay on human P-selectin, OD 450. The procedure: To evaluate the ability of B.PselscFv-Crry and NB.PselscFv-Crry to inhibit complement activation, a zymosan A bead assay was performed. Briefly, flow cytometric analysis of C3 deposition on zymosan A particles (SigmaAldrich) was performed and the extent of complement inhibition was normalized by the subtraction of post-IRI complement deposition levels from their baseline levels. Both B.PSelscFv-Crry and NB.PSelscFv-Crry constructs inhibit complement activation in a dose-dependent manner (FIG. 21A). Further, to evaluate the binding of B.PselscFv-Crry and NB.PselscFv-Crry to human P-selectin, an ELISA was performed. Briefly, non-blocking and blocking fusion proteins (NB.PselscFv-Crry and B.PselscFv-Crry, respectively) were plated at varying doses in addition to varying doses of C2-Crry as a negative control.
On the technique in general: ELISA stands for enzyme-linked immunosorbent assay.

For assay [1], the target named is T2, P-Selectin-His tag (mouse) (mouse, UniProt Q01102 42-709, limits assumed).
T2 construct: also called mouse P-selectin; mouse antigen P-Selectin; not shown: His tag
T2 sequence (looked up): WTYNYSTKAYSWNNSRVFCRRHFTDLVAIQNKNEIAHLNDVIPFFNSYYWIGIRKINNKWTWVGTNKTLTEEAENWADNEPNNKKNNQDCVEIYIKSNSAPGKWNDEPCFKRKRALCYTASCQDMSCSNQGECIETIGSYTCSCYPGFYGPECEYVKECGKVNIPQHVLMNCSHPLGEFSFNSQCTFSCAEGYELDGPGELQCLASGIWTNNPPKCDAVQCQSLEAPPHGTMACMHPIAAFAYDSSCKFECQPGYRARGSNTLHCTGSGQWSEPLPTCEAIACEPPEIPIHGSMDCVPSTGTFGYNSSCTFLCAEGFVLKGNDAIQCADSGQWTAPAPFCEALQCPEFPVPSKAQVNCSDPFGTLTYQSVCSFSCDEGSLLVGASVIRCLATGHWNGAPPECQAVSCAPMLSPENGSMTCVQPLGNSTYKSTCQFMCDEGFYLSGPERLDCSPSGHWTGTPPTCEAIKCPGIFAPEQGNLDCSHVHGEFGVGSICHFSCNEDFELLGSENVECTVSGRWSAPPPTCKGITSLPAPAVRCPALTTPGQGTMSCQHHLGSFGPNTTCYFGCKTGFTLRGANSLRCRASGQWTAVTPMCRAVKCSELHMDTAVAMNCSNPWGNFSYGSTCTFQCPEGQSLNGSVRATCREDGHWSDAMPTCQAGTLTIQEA
The experiment in a line: SPRi (PlexArray HT), mouse P-Selectin-His printed on chip, fusion protein as analyte, 25 C. The method, then: FIG. 20A through FIG. 20C depict a representative experimental evaluation of the binding affinity of mouse antigen P-Selectin to B.PselscFv-Crry and NB.PselscFv-Crry. SPR binding assays were performed to measure binding affinity KD and kinetic parameters ka, kd of B.PselscFv-Crry and NB.PselscFv-Crry. The ligand is P-Selectin-His tag (mouse) which was printed onto the chip. The analytes are B.PselscFv-Crry and NB.PselscFv-Crry. After data collection with SPR and kinetics fitting and analysis, the KD, ka, and kd were calculated. FIG. 20A depicts exemplary kinetics fitting curves of P-Selectin to B.PselscFv-Crry. FIG. 20B depicts exemplary kinetics fitting curves of P-Selectin to NB.PselscFv-Crry.
To measure binding affinity, surface plasmon resonance was used with mouse P-selectin as the immobilized ligand and B.PselscFv-Crry (FIG. 20A) and NB.PselscFv-Crry (FIG. 20B) as the analytes. Various concentrations of P-Selectin dissolved in water were manually printed onto the bare gold-coated (thickness 47 nm) PlexArray Nanocapture Sensor Chip (Plexera Bioscience, Seattle, WA, US) at 40% humidity. Each concentration was printed in replicate, and each spot contained 0.2 μL of sample solution. The chip was incubated in 80% humidity at 4° C. for overnight, and rinsed with 10×PBST for 10 min, 1×PBST for 10 min, and deionized water twice for 10 min. The chip was then blocked with 5% (w/v) non-fat milk in water overnight, and washed with 10×PBST for 10 min, 1×PBST for 10 min, and deionized water twice for 10 min before being dried under a stream of nitrogen prior to use. SPRi measurements were performed with PlexAray HT (Plexera Bioscience, Seattle, WA, US). Collimated light (660 nm) passes through the coupling prism, reflects off the SPR-active gold surface, and is received by the CCD camera. Buffers and samples were injected by a non-pulsatile piston pump into the 30 μL flowcell that was mounted on the coupling prim.

B1: NB.PSelscFv-Crry (anti-pselectin 2.3scFv-Crry, non-blocking) (scFv)
chain: QIQLVLSGPELKKPGESVKISCKASGYTFTTYGMSWVKQAPGKGLKWMGWINTSSGVPTYADDFKGRFAFSLETSASTAYLQINNLKNEDTATYFCARGGGYYGAYYFYYWGQGTTLTVSSGGGGSGGGGSGGGGSDIQMTQSPASLSASVGETVTITCRTSDNINSYLAWYLQRQGKSPQLLVYNAKTLTEGVPSRFSGSGSGTQFSLKINSLQPEDFGSYYCQHHYGPPPTFGGGTKLEIKGGGGSGGGGSCPAPSQLPSAKPINLTDESMFPIGTYLLYECLPGYIKRQFSITCKQDSTWTSAEDKCIRKQCKTPSDPENGLVHVHTGIQFGSRINYTCNQGYRLIGSSSAVCVITDQSVDWDTEAPICEWIPCEIPPGIPNGDFFSSTREDFHYGMVVTYRCNTDARGKALFNLVGEPSLYCTSNDGEIGVWSGPPPQCIELNKCTPPPYVENAVMLSENRSLFSLRDIVEFRCHPGFIMKGASSVHCQSLNKWEPELPSCFKGVICRLPQEMSGFQKGLGMKKEYYYGENVTLECEDGYTLEGSSQSQCQSDGSWNPLLAKCVSRSIIEGRHHHHHH
notes: also called Psel.NB; Psel-NB
Take B1: in the assay with human P-selectin, the EC50 (read off the curve) (as a rule, the midpoint of the concentration-response curve) was around 0.06 µg/mL. In addition, in assay [1], the Kd (usually the concentration at which binding is half-saturated) came to 630 nM; the off-rate (koff) (in general, a measure of how fast the partners let go of each other) was 0.00179 s⁻¹; the kon (usually a measure of how fast the partners come together) worked out at 2840 M⁻¹ s⁻¹.
